Results: patent US20250326842A1 (BEIGENE SWITZERLAND, published 2025)

Key:
human PVRIG-mIgG2a [1] = biological target: T1, human PVRIG-mIgG2a (human, UniProt Q6DKI7 41-171, limits assumed); assay: ELISA, hPVRIG-mIgG2a coated at 0.5 µg/mL
T1 construct: also called hPVRIG-mIgG2a; hPVRIG; not shown: mouse IgG2a Fc
T1 sequence: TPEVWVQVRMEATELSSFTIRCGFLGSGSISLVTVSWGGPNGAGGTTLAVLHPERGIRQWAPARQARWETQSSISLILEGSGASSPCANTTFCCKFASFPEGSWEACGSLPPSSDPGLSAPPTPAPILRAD

FcγRIIA H131 = biological target: T2, FcγRIIA H131 (human, UniProt P12318 36-218, limits assumed); assay: Biacore, KD from equilibrium analysis
T2 sequence (looked up): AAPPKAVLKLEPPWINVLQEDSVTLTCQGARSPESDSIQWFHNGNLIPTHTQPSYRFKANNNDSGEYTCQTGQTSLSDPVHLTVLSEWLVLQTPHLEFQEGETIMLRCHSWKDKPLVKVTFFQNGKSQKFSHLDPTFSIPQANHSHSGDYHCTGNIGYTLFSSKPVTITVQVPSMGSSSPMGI
Method: (§1) K¹ (M) values were calculated from the ratio of the kinetic constants as KD=koff/kₒₙ. K2 (M) values were determined by the analyte concentration at which half of the ligands are occupied at equilibrium.

FcγRIIA R131 = biological target: T3, FcγRIIA R131 (human, UniProt P12318 36-218, limits assumed); assay: Biacore, KD from equilibrium analysis
T3 sequence (looked up): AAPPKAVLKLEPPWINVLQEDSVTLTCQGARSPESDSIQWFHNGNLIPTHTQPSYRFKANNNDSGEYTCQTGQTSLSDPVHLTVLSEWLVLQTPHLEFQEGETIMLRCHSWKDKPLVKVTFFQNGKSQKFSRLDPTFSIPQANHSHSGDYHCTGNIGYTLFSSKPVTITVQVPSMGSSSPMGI
Method: as §1

FcγRIIB = biological target: T4, FcγRIIB (human, UniProt P31994 46-217, limits assumed); assay: Biacore, KD from equilibrium analysis
T4 sequence (looked up): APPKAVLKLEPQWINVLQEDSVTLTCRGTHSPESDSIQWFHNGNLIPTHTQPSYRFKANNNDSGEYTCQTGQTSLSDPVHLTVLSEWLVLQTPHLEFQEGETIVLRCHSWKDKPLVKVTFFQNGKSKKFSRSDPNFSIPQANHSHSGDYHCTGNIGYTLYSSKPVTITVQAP
Method: as §1

FcγRI = FcγRI (human, UniProt P12314 16-288, limits assumed); assay: Biacore, KD from kinetic constants (koff/kon)
Method: as §1

[2] = biological target: T5, Human Serum Albumin Protein His Tag (human, UniProt P02768 25-609); assay: immunohistochemistry on protein smears, Biotin-BGA384
T5 construct: also called negative control protein smear; not shown: His tag
Source text: Materials and Methods: A total of 35 tissue types, each in triplicate from 3 donors, were used for the evaluation. […] 0.5 and […] Biotin-Human IgG1-Kappa (IgG1 isotype control), and 0.01 mol/L phosphate-buffered saline (reagent control).

[3] = biological target: T6, human PVRIG recombinant protein (human, UniProt Q6DKI7 41-171); assay: SPR, antibody captured via anti-human Fc, human PVRIG analyte
T6 construct: also called human PVRIG protein; recombinant human antigen PVRIG
T6 sequence: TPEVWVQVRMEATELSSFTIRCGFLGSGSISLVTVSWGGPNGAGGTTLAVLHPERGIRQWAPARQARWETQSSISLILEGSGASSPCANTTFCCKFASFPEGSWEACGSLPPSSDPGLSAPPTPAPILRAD
Source text: For affinity determination, anti-PVRIG antibodies were captured by anti-human Fc antibodies, and used in the affinity assay based on surface plasmon resonance (SPR) technology.

hPVRIG-ECD-his [4] = biological target: T7, hPVRIG-ECD-his (human, UniProt Q6DKI7 41-171); assay: SPR (Biacore), BGA384 captured via anti-human Fc, human PVRIG-His analyte
T7 construct: Acrobiosystems PVG-H52H4; also called hPVRIG-His; human PVRIG-His; not shown: His tag
T7 sequence: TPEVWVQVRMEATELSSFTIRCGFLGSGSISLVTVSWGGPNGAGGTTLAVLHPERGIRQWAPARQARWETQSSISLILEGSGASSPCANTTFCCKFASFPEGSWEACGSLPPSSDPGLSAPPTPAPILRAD
Method: SPR koff and kₒₙ were calculated using the one-to-one Langmuir binding model (BIA Evaluation Software, GE Life Sciences); KD was calculated as the ratio of koff/kₒₙ.

[5] = biological target: T6, human PVRIG recombinant protein; assay: competition ELISA, BGA384 against biotinylated human PVRL2 (Fc-Avi-tag) on coated human PVRIG
[6] = biological target: T8, Cyno PVRIG expressed on HEK293 cells (cynomolgus monkey); assay: flow cytometry on HEK293 cells expressing cyno PVRIG, anti-hFc-647 detection [panel B]
T8 construct: also called native Cyno PVRIG
T8 chain: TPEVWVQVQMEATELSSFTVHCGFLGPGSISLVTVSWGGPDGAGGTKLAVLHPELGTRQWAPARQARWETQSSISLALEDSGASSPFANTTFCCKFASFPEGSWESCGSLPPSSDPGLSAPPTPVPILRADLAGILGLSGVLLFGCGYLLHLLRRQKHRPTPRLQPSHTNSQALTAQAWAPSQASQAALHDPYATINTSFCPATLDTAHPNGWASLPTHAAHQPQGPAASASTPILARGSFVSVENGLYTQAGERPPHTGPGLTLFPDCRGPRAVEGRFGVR
Method: To evaluate the binding activity of anti-PVRIG antibodies to native Cyno PVRIG on living cells. HEK293 cells were engineered to express Cyno PVRIG. HEK293 cells transfected with Cyno PVRIG were seeded in 96 well plates and were incubated with a serial dilution of anti-PVRIG antibodies. […] EC50 values for dose dependent binding to Cyno native PVRIG were determined by fitting the dose response data to the four-parameter logistic model with GraphPad Prism™.

human PVRIG-mIgG2a [7] = biological target: T1, human PVRIG-mIgG2a; assay: cell-based competition, BGA384 against binding of hPVRIG-mIgG2a (300 ng/ml) to Farage-hPVRL2 cells, flow cytometry
Source text: The bound human PVRIG was detected with PE anti-mouse IgG2a antibody by flow cytometry.

Human C1q = Human C1q (human, UniProt P02745 23-245; P02746 28-253; P02747 29-245); assay: ELISA: plate coated with increasing amounts of antibody, human C1q at 8 µg/mL, anti-C1q antibody detection
Method: Human C1q (100 uL total: 8 μg/mL) was incubated in the antibody-coated wells. Bound C1q was detected by a specific anti-C1q monoclonal antibody. ELISA readings at 450 nm were plotted on the y-axis.

hPVRIG-ECD-his [8] = biological target: T7, hPVRIG-ECD-his; assay: blocking ELISA: hPVRIG-His coated, antibody mixed with PVRL2-biotin at 1 ug/mL; % inhibition of PVRL2 binding [panel B]

Chain of FcγRI (P12314 16-288 limits assumed): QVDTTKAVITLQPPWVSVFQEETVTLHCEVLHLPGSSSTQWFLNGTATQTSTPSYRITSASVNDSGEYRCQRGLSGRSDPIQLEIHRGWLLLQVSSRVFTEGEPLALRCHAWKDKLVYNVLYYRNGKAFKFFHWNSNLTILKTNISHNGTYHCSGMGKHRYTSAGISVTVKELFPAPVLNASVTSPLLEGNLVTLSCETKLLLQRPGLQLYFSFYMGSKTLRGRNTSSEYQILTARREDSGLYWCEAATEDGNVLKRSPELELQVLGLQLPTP
Chain of Human C1q (P02745 23-245 limits assumed, chain 1 of 3): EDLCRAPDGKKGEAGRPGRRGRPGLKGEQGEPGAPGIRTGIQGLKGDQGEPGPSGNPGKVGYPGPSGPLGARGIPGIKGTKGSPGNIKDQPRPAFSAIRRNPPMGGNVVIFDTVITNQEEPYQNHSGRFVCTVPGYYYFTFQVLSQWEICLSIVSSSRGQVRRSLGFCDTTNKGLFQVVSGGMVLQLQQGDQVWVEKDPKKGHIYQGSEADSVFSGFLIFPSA
Chain of Human C1q (P02746 28-253 limits assumed, chain 2 of 3): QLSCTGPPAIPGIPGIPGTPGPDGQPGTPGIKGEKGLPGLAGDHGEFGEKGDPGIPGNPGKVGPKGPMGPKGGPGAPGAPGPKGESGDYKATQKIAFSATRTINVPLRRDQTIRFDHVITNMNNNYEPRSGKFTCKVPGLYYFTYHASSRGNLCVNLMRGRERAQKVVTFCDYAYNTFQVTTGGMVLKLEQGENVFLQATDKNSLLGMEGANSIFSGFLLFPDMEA
Chain of Human C1q (P02747 29-245 limits assumed, chain 3 of 3): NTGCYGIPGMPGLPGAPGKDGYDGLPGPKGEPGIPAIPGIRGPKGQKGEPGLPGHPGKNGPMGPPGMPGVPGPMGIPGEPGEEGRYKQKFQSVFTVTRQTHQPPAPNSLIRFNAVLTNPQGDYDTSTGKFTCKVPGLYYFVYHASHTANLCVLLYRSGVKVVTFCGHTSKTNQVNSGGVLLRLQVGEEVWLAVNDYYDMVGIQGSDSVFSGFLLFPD
T5 sequence (P02768 25-609 limits assumed): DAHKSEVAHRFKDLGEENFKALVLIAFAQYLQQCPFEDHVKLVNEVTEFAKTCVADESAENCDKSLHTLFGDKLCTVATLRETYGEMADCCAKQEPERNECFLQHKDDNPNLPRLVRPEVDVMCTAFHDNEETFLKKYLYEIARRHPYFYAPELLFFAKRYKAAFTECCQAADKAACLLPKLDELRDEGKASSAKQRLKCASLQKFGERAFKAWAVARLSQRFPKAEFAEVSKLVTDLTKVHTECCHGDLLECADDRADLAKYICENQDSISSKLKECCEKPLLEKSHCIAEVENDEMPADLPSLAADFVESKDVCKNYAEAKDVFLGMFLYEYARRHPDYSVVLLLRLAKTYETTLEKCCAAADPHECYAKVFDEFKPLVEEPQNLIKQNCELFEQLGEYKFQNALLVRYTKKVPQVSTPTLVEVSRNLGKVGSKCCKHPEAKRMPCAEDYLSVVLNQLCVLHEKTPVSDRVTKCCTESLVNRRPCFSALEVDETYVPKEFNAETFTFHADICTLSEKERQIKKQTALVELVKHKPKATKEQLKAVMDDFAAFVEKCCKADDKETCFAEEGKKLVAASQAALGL

B1: BGA384 (antibody, human IgG1, kappa)
heavy: not shown
light: QIVLTQSPATLSLSPGERATLSCSAGSSVNYMHWFQQKPGQAPRLLIYSTSNLASGVPARFSGSGSGTDYTLTISSLEPEDFAVYYCQQRSSLPFTFGQGTKLEIKRTVAAPSVFIFPPSDEQLKSGTASVVCLLNNFYPREAKVQWKVDNALQSGNSQESVTEQDSKDSTYSLSSTLTLSKADYEKHKVYACEVTHQGLSSPVTKSFNRGEC
notes: also called BGB-A538; BGA384 WT
EC50 (human PVRIG-mIgG2a [1]): 0.00879 µg/mL | Kd (FcγRIIA H131): 1480 nM | Kd (FcγRIIA R131): 1920 nM | Kd (FcγRIIB): 9230 nM | Kd (FcγRI): 3.26 nM | binding result [2]: no binding (tested: 0.5 and 1 µg/mL) | Kd [3]: 0.258 nM | koff [3]: 0.000304 s⁻¹ | kon [3]: 1.18e+06 M⁻¹ s⁻¹ | Kd (hPVRIG-ECD-his [4]): 0.0826 nM | koff (hPVRIG-ECD-his [4]): 0.000344 s⁻¹ | kon (hPVRIG-ECD-his [4]): 4.16e+06 M⁻¹ s⁻¹ | IC50 [5]: 0.383 µg/mL | EC50 (read off the curve) [6]: ~0.05 µg/mL | IC50 (human PVRIG-mIgG2a [7]): 0.109 µg/mL | EC50 (read off the curve) (Human C1q): ~2 µg/mL | IC50 (read off the curve) (hPVRIG-ECD-his [8]): ~0.4 µg/mL
